This is an account of results in US20140099313A1.

In assay [1] the target is human IL-13 wild type (human) (UniProt P35225). Description: competition, ELISA RBA: IL-13 to IL-13Rα2/Fc. In general terms: In an ELISA, binding on a coated surface is turned into a signal by an enzyme label.
The target is the same in assay [2]. Description: competition, cell surface RBA: IL-13 to IL-13Rα2 on COS cells.

Sequence of human IL-13 wild type (human) (P35225 other isoform, or with tags, fused parts or gaps limits assumed): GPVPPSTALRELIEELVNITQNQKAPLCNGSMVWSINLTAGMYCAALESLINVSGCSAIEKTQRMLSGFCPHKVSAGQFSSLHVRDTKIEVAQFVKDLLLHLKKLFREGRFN

B1: MJ2-7 (antibody, from another filing, V domains shown)
VH: EVQLQQSGAELVKPGASVKLSCTGSGFNIKDTYIHWVKQRPEQGLEWIGRIDPANDNIKYDPKFQGKATITADTSSNTAYLQLNSLTSEDTAVYYCARSEENWYDFFDYWGQGTTLTVSS
VL: DVLMTQTPLSLPVSLGDQASISCRSSQSIVHSNGNTYLEWYLQKPGQSPKLLIYKVSNRFSGVPDRFSGSGSGTDFTLKISRVEAEDLGVYYCFQGSHIPYTFGGGTKLEIK
For the molecule B1, the percent inhibition at 100 nM in assay [1] was determined as 60%; in assay [2], 70%.
